From patent US20250257149A1 (GLYCOTOPE, published 2025)

Key:
[1] = target: T1, TA-MUC1 (tumor-associated MUC1) on human tumor cell lines (human, UniProt P15941 24-1255, aberrant tumor-associated O-glycosylation); test: saturation binding of 111In-labelled antibody on MCF-7 cells
T1 construct: whole, on cells; also called cellular TA-MUC1; cell surface TA-MUC1
Experimental: (§1) Binding of the Fab-deglycosylated version of the MUC1-specific antibody PankoMab (PM-N54Q) on TA-MUC-1 positive human tumor cell lines was evaluated using radiolabeled antibodies by saturated binding analysis on the human mamma carcinoma cell lines ZR-75-1 and MCF-7 in comparison to Fab-glycosylated PankoMab-GEX®. The antibodies were chelated with a 12-fold molar excess of p-SCN-Benzyl-DTPA in 50 mM sodium carbonate, 150 mM NaCl, pH 8.7, for 2 h at 37° C., followed by over-night incubation at 2-8° C. Free chelator was removed over desalting columns and dead-end filtration (50 kDa cut-off, 6× buffer exchange to PBS). The chelated antibodies were radiolabeled with carrier-free ¹¹¹In (2 μCi/μg antibody) for 1 h at 37° C. in 6 mM phosphate, 1.6 mM KCl, 80 mM NaCl, 0.2 M Na-acetate, 0.1 M HCl. The preparations were neutralized by addition of 8-9 fold volume of 10× concentrated PBS. About 1/50 volume of fetal bovine serum were added to the neutralized labelled antibody preparation. Per cell binding approach 1*10⁶ cells were used. Several concentrations of labelled antibodies were added to the pelleted cells (30-1000 ng/200 μL in 1% BSA/PBS). The resuspended cell-antibody mixtures were measured in a gamma-counter and incubated 1 h at 4° C. […] The cell pellet was then measured for bound ¹¹¹In-labelled antibody in a gamma counter. […]

[2] = target: T1, TA-MUC1 (tumor-associated MUC1) on …; test: saturation binding of 111In-labelled antibody on ZR-75-1 cells
Experimental: as §1

[3] = target: T1, TA-MUC1 (tumor-associated MUC1) on …; test: flow cytometry on HSC-4 cells, detection with PE-conjugated goat anti-human IgG
Experimental: (§2) N54Q and N54D were transiently expressed and purified by protein A chromatography. Binding of the two variants to cell surface TA-MUC1 was compared to PM with Fab glycosylation using two different carcinoma cell lines. The tongue squamous cell carcinoma line HSC-4 expresses TA-MUC1 to a medium degree and the ovarian carcinoma cell line CaOV-3 to a high degree. Tumor cells were incubated with antibodies in serial dilutions and bound antibodies were detected using a Phycoerythrin-conjugated goat anti-human IgG (heavy and light chain) antibody. A human IgG control was included to control for background staining. Binding was analyzed by flow cytometry.

[4] = target: T1, TA-MUC1 (tumor-associated MUC1) on …; test: flow cytometry on CaOV-3 cells, detection with PE-conjugated goat anti-human IgG
Experimental: as §2

[5] = target: T1, TA-MUC1 (tumor-associated MUC1) on …; test: saturation binding of 111In-labelled antibody on ZR-75-1 and MCF-7 cells
Experimental: as §1

T1 sequence (P15941 24-1255): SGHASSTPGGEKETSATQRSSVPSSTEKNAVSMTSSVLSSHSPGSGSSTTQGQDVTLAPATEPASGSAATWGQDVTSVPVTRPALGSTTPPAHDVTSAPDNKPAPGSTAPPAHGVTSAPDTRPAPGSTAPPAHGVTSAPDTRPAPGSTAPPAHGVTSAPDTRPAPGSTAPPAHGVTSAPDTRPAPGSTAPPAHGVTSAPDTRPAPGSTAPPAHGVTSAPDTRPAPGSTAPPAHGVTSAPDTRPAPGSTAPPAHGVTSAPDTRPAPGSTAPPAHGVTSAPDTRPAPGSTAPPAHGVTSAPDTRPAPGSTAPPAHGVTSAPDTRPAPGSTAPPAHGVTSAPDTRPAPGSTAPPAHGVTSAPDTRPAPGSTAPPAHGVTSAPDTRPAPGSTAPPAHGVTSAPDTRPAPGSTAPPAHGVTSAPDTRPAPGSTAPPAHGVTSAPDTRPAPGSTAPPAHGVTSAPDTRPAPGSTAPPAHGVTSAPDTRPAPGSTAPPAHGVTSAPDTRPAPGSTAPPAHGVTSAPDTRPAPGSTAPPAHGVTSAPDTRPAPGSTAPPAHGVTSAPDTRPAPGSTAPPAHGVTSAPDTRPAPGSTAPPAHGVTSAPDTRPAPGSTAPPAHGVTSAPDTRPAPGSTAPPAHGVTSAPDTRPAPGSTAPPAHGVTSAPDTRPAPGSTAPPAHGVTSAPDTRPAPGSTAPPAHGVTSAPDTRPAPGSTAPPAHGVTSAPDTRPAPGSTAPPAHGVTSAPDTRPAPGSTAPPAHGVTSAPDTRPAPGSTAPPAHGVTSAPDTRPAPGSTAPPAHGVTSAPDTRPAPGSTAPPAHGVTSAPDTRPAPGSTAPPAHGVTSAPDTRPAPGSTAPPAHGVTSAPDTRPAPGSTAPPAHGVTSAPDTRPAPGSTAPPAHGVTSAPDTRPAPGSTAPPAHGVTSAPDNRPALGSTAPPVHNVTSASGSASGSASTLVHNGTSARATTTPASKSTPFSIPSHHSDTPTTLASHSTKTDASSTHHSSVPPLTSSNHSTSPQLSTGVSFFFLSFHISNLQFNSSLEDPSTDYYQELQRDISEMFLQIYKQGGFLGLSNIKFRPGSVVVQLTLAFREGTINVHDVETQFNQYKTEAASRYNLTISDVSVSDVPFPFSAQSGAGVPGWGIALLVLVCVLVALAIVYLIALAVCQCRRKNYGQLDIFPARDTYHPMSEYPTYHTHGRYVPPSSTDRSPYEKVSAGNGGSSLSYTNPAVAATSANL

Binder	Ka [1]	Ka [2]	EC50 (read off the curve) [3]	EC50 (read off the curve) [4]	fold higher binding than PankoMab-GEX® [5]
humanized antibody PankoMab (with Fab glycosylation) (antibody, human IgG1, kappa, N-glycan on Asn54 (Kabat/EU numbering; amino acid position 57) in CDR-H2, IgG1 kappa made in NM-H9D8 cells (for the FcγRIIIa assay also in NM-H9D8-E6Q12, low fucose); also called PM; PankoMab-GEX®) heavy: not shown light: DIVMTQSPLSNPVTPGEPASISCRSSKSLLHSNGITYFFWYLQKPGQSPQLLIYQMSNLASGVPDRFSGSGSGTDFTLRISRVEAEDVGVYYCAQNLELPPTFGQGTKVEIKRTVAAPSVFIFPPSDEQLKSGTASVVCLLNNFYPREAKVQWKVDNALQSGNSQESVTEQDSKDSTYSLSSTLTLSKADYEKHKVYACEVTHQGLSSPVTKSFNRGEC	3e+07 M⁻¹	1.2e+07 M⁻¹	~300 ng/mL	~3 ng/mL	–
PankoMab N54D (antibody, V domains shown, Light chain unchanged; also called PM-N54D) VH: EVQLVESGGGLVQPGGSMRLSCVASGFPFSNYWMNWVRQAPGKGLEWVGEIRLKSNDYTTHYAESVKGRFTISRDDSKNSLYLQMNSLKTEDTAVYYCTRHYYFDYWGQGTLVTVSS VL: DIVMTQSPLSNPVTPGEPASISCRSSKSLLHSNGITYFFWYLQKPGQSPQLLIYQMSNLASGVPDRFSGSGSGTDFTLRISRVEAEDVGVYYCAQNLELPPTFGQGTKVEIKR	–	–	–	~4 ng/mL	–
humanized antibody PankoMab N54Q (without Fab glycosylation) (antibody, human IgG1, kappa, IgG1 kappa; Made in NM-H9D8 cells (for the FcγRIIIa assay also in NM-H9D8-E6Q12, low fucose); also called PM-N54Q; PM N54Q w/o Fab glyc) heavy: not shown light: DIVMTQSPLSNPVTPGEPASISCRSSKSLLHSNGITYFFWYLQKPGQSPQLLIYQMSNLASGVPDRFSGSGSGTDFTLRISRVEAEDVGVYYCAQNLELPPTFGQGTKVEIKRTVAAPSVFIFPPSDEQLKSGTASVVCLLNNFYPREAKVQWKVDNALQSGNSQESVTEQDSKDSTYSLSSTLTLSKADYEKHKVYACEVTHQGLSSPVTKSFNRGEC	7.8e+07 M⁻¹	3.4e+07 M⁻¹	~100 ng/mL	~2 ng/mL	> 2.5 fold
